Test results taken from PMC13061415.

B1: Twa1 CTLH-CRA domain (58-190), wild type [mouse] / muskelin CTLH-CRA domain (205–735 Δ248–625) [rat] (parent)
chain 1: EHPMLTDMHDKLVLKGDFDACEELIEKAVNDGLFNQYISQQEYPSKDYLLRHCKYLIRKHRFEEKAQMDPLSALKYLQNDLYITVDHSDPEETKEFQLLASALFKSGSDFTALGFSDVDHTYAQRTQLFDTLVNFFPDSMTPPKGNLVDLITL
chain 2: SVDLETLDERIKIREMILKGQIQEAIALINSLHPELLDTNRYLYFHLQQQHLIELIRQRETEAALEFAQTQLAEQGEESRECLTEMERTLALLAFDSPEESPFGDLLHMMQRQKVWSEVNQAVLDYENRESTP

Variants of: B1
Test: ITC
Details: with muskelin CTLH-CRA domain (205–735 Δ248–625) [rat]; 160 µM muskelin + 16 µM Twa1 mutants

Variant | Kd | screen value
chain 2 A68G Q69R A73Q L83K E87K L90F F95Y F103V | 340 nM | 0.88

Same assay, conditions: with muskelin CTLH-CRA domain (205–735 Δ248–625) [rat]; 160 µM muskelin + 16 µM Twa1 mutants; read off a plot

Variant | screen value
chain 2 A68G Q69R A73Q L83K E87K L90F F95Y F103V | -9.2 kcal/mol
